Where two headings read alike, the source gives them in different places.

These results are taken from article PMC10547473.

For TFEB: 3xSA-TR (S134A, S138A, S142A), the localisation_or_trafficking result runs as follows: (phosphorylation at S134) “decreases”; (phosphorylation at S138) “decreases”; (phosphorylation at S142) “decreases”.

Regarding “TFEB: 5xSA-TR (S122A, S134A, S138A, S142A, S211A)”, the localisation_or_trafficking entry reads like this: (phosphorylation at S122) “abolishes”; (phosphorylation at S134) “abolishes”; (phosphorylation at S138) “abolishes”; (phosphorylation at S142) “abolishes”; (phosphorylation at S211) “abolishes”.
